Experiment [1] has as its target β10-S-β10 (SARS-CoV-2) (UniProt P0DTC2). As to the kind of experiment: tNLuc assay (β9-G/β10-S-β10); CR3022 dose response with 0-100 µg/mL human IgG, allosteric noncompetitive inhibition model.
In another experiment the target is β10-S (SARS-CoV-2) (UniProt P0DTC2). As to the kind of experiment: tNLuc split-luciferase assay in solution with β9-G; CR3022 dose response, allosteric sigmoidal fit.
Experiment [2] addresses β10-S-β10 (SARS-CoV-2) (UniProt P0DTC2). Described as above.

Among the data in patent US20240003881A1 are Kd values, retold here.

As a reminder, the Kd is the concentration at which binding is half-saturated. A low value points to tighter binding.

Turning to CR3022 (antibody), the Kd came to 0.22 µg/mL with β10-S-β10 (SARS-CoV-2) [1], 0.42 µg/mL with β10-S (SARS-CoV-2) and 0.23 µg/mL in the experiment with β10-S-β10 (SARS-CoV-2) [2].
